Assay: yeast display, Sf9 membrane polyspecificity reagent, FACS + sequencing; frameworks hold sequencing errors
In short: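 Genes from sorted yeast were amplified by colony PCR, read by MiSeq 2 × 250 sequencing and filtered on CDR length. These cells carried a synthetic nanobody library in Saccharomyces cerevisiae BJ5465 and were sorted by FACS into low and high (top ~1%) gates on anti-HA and streptavidin fluorescence. Polyreactivity is labelled according to the gate of origin.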
For “QVQLVESGGGLVQAGGSLRLSCAASGFTYRWYAMGWYRQAPGKETELVAAISWDGGSTYYADSVKGRFTISRDNAKNTVYLQMNSLKPEDTAVYFCATVKSLRYWWQNEYGYWGQGTQVTVSS”, the “polyreactivity (PSR sort gate)” value was “high polyreactivity”.
In the case of “QVQLVESGGGLVQAGGSLRLSCAASGFTYRYYAMGWYRQSPGKERELVAAISSGGNTRYADSVKGRFTISRDNAKNTVYLQMTSLKPEDTAVYYCARRPGDWKYVYTGDYWGQGTQVTVSS”, the “polyreactivity (PSR sort gate)” value is reported as “high polyreactivity”.
With “QVQLVESGGGLVQAGGSLRLSCAASGFTYYHNAMGWYRQAPGKERELVAAISSSGDSTYYADSVKGRFTISRDNAKNTVYLQMKSLKPEDTAVYYCNDYFYYLSLYYYYWFNYDYWGQGTQVTVSS” the “polyreactivity (PSR sort gate)” value was “low polyreactivity”.
With “QVQLVESGGGLVQAGGSLRLSCAASGGIFAPNAMGWYRQAPGKEREFVAAISTGGGSTRYADSVKGRFTISRDNAKNTVYLQMNSLKPEDTAVYYCAAELWYTWLGSPYDYWGQGTQVTVSS” the “polyreactivity (PSR sort gate)” value was “low polyreactivity”.
For “QVQLVESGGGLVQAGGSLRLSCAASGGIFAYNVMGWYRQAPGKERELVAAISSAGSTYYADSVKGRFTISRDNAKNTVYLQMNSLKPEDTAVYYCAVRIGLKYDYWGQGTQVTVSS”, the “polyreactivity (PSR sort gate)” value was “low polyreactivity”.
For “QVQLVESGGGLVQAGGSLRLSCAASGGIFDGNAMGWYRQAPGKERELVAAISSGGITKYADSVKGRFTISRDNAKNTVYLQKNSLKPEDTAVYYCAASWYRYRFIRYDYWGQGTQVTVSS”, the “polyreactivity (PSR sort gate)” value was “high polyreactivity”.
For “QVQLVESGGGLVQAGGSLRLSCAASGGIFDGYAMGWYRQAPGKERELVAAINYSVDRTYYADSVKGRFTISRDNAKNTVYLQMNSLKPVDTAVYYCATVPRYVRFGYGYWGQGTQVTVSS”, the “polyreactivity (PSR sort gate)” value was “high polyreactivity”.
In the case of “QVQLVESGGGLVQAGGSLRLSCAASGGIFDSYAMGWYRQAPGKERELVAAISRSGSTNYADSVKGRFTISRDNAKNTVYLQMYSLKPEDTAVYYCAASVRGIRYDYWGQGTQVTVSS”, the “polyreactivity (PSR sort gate)” value is reported as “low polyreactivity”.
For “QVQLVESGGGLVQAGGSLRLSCAASGGIFDSYAMGWYRQAPGKERELVADITWSGGSTYYADSVKGRFTISRDNAKNTVYLQMNSLKPEDTAVYYCAADDGSQYYFDSPHEYDYWGQGTQVTVSS”, the “polyreactivity (PSR sort gate)” value was “low polyreactivity”.
In the case of “QVQLVESGGGLVQAGGSLRLSCAASGGIFDTYAMGWYRQAPGKERELVAAISSTGGSTYYADSVKGRFTISRDNAKNTVYLQMNSLKPEDTAVYYCNAVLARFWRYRRWEYDYWGQGTQVTLSS”, the “polyreactivity (PSR sort gate)” value is reported as “high polyreactivity”.
For “QVQLVESGGGLVQAGGSLRLSCAASGGIFDYYAMGWYRQAPGKERELVAAISSSGGSTYYADSVKGRFTISRDNAKNTVYLQMNSLKPEDTAVYYCNADRRRRFGYWGQGTQVTVSS”, the “polyreactivity (PSR sort gate)” value was “high polyreactivity”.
For “QVQLVESGGGLVQAGGSLRLSCAASGGIFFINAMGWYRQAPGKERELVAAISISDGSTYYADSVKGRFTISRDNAKNTVYLQMNSLKPEDTAVYYCAAEGFDWDSPEMEYWGQGTQVTVSS”, the “polyreactivity (PSR sort gate)” value was “low polyreactivity”.
For “QVQLVESGGGLVQAGGSLRLSCAASGGIFGGYAMGWYRQAPGKEGELVAVITSGGSTYYADSVKGRFTISRDNAKNTVYLQMNSLKPEDTAVYYCAADGNSYSYSTYDYWGQGTQVTLSS”, the “polyreactivity (PSR sort gate)” value was “low polyreactivity”.
With “QVQLVESGGGLVQAGGSLRLSCAASGGIFGTNDLGWSRQAPGKERELVAAITSDSGSTYYADSVKGRFTISRDNAKNTVYLQMTSLKPEDTAVYYCAAEDGPWFYRYGYWGQGTQVTVSS” the “polyreactivity (PSR sort gate)” value was “low polyreactivity”.
In the case of “QVQLVESGGGLVQAGGSLRLSCAASGGIFGTYAMGWYRQAPGKEREFVAAITSGDSTYYADSVKGRFTISRDNAKNTVYLQMNSLKPEDTAVYYCAVGSTDRVSAQGSYFTYDYWGQGTQVTVSS”, the “polyreactivity (PSR sort gate)” value is reported as “low polyreactivity”.
In the case of “QVQLVESGGGLVQAGGSLRLSCAASGGIFGTYTMGGYRQSPGKEREFVAAIRSSSGRTYYADSVKGRFTISRDNAKNTVYLQMNSLKPEVTAVYYCNAKYYGYRVGKYYPFGYWGQGTQVTVSS”, the “polyreactivity (PSR sort gate)” value is reported as “high polyreactivity”.
With “QVQLVESGGGLVQAGGSLRLSCAASGGIFGYNAMGWYRQAPGKERELVAAISRGTTTNYADSVKGRFTISRDNAKNTVYLQMNSLKPEDTAVYYCAADQPSKRYYYWGQGTQVTVSS” the “polyreactivity (PSR sort gate)” value was “low polyreactivity”.
With “QVQLVESGGGLVQAGGSLRLSCAASGGIFGYYAMGWYRQAPGKERELVAAISYSGGSTYADSVKGRFTISRDNAKNTVYLQMNSLKPEDTAVFYCAARVSSVTRSGFGYWGQGTQVTVSS” the “polyreactivity (PSR sort gate)” value was “high polyreactivity”.
With “QVQLVESGGGLVQAGGSLRLSCAASGGIFISYAMGWYRQAPGKERELVAAITSSGGSTYYADSVKGRFTISRDNAKNTVYLQMNSLKPEVTAVYYCNTDRVPVKVSPLYESWGQGTQVTVSS” the “polyreactivity (PSR sort gate)” value was “low polyreactivity”.
For “QVQLVESGGGLVQAGGSLRLSCAASGGIFKYYAMGWSRQAPGTERELVAAITSGGNTNYAESVKGRFTISRDNAKNTVYLQMNSQKPEDTAVYYCSARSISRRTWQYNYWGQGTQVTVSS”, the “polyreactivity (PSR sort gate)” value was “high polyreactivity”.
With “QVQLVESGGGLVQAGGSLRLSCAASGGIFLKYAMAWYRQAPGKERELVASINTGVRTYYADSVKGRFTISRDNAKNTVYLQMNSLKPEDTAVYYCYADGGGPRKYTRTRGHWGQGTQVTVSS” the “polyreactivity (PSR sort gate)” value was “low polyreactivity”.
In the case of “QVQLVESGGGLVQAGGSLRLSCAASGGIFLRYSMGWYRQAPGKERELVAAITANGGSTYYADSVKGRFTISRDNAKNTVYLQMISMKPEDTAVYYCNADSFPALNKRGYDYWGQVTQVTVSS”, the “polyreactivity (PSR sort gate)” value is reported as “low polyreactivity”.
With “QVQLVESGGGLVQAGGSLRLSCAASGGIFNYYAMGWYRQAPGKERELVAAISASGGSTYYADSVKGRFTISRDNAKNTVYLQMNSLKPEDTAVYYCAAGLPYGYGYDYWGQGTQVTVSS” the “polyreactivity (PSR sort gate)” value was “low polyreactivity”.
With “QVQLVESGGGLVQAGGSLRLSCAASGGIFPAYAMGWYRQAPGKERELVAAITSSGASTYADSVKGRFTISRDNAKNTVYLQMNSLKPEDTAVYYCNADDTTVILEMDYWGQGTQVTVSS” the “polyreactivity (PSR sort gate)” value was “low polyreactivity”.
With “QVQLVESGGGLVQAGGSLRLSCAASGGIFRGNAMGWYRQAPGKERELVAAISSSGGSTYYADSVKVRFTISRDNSKYTVYLEMYSLKPEDTAVYYCAAYAGSFYYWGQGTQVTVSS” the “polyreactivity (PSR sort gate)” value was “high polyreactivity”.
In the case of “QVQLVESGGGLVQAGGSLRLSCAASGGIFRSYAMGWYRQAPGKERELVAAINYSGGSTYYADSVKGRFTISRDNAKNSVYLQMNSLKPEDTAVYYCASDGYIRQYVTYYYWGQGTQVTVSS”, the “polyreactivity (PSR sort gate)” value is reported as “low polyreactivity”.
In the case of “QVQLVESGGGLVQAGGSLRLSCAASGGIFSWYDMGWYRQAPGKEREFVATITYSGGSTYYADSVKGRFTISRDNAKNTVYLQMNSLKPEDTAVYYCAAARYWYRRFDYWGQGTQVTVSS”, the “polyreactivity (PSR sort gate)” value is reported as “high polyreactivity”.
With “QVQLVESGGGLVQAGGSLRLSCAASGGIFSYNAMGWYIQAPGKERELVATISYSGGSTFYADSVKGRFTISRHNAKNTVYFQMNSLKPEDTAVYYCARPSYTSGYQSYDYWGQGTQVTVSS” the “polyreactivity (PSR sort gate)” value was “low polyreactivity”.
With “QVQLVESGGGLVQAGGSLRLSCAASGGIFTGYAMGWYRQAPGKERELVAAISSGGTTYYADSVKGRFTISRDNAKITVHLQMNSLKPEDTAVYYCAAGFYLRAVWMDYWGQGTQVTVSS” the “polyreactivity (PSR sort gate)” value was “high polyreactivity”.
In the case of “QVQLVESGGGLVQAGGSLRLSCAASGGIFTLNGMGWYRQAPGKERELVAVITSSGGSTYYADSVKGRFTISRDNAKNTVYLQMNSLKPEDTAVYYCAAQLVRYVGYYRFDYWGQGTQVTVSS”, the “polyreactivity (PSR sort gate)” value is reported as “low polyreactivity”.
With “QVQLVESGGGLVQAGGSLRLSCAASGGIFTYYAMGWYRQAPGKERELVAAISASGGSTYYADSVKGRFTISRDNAKNTVYLQMNSLKPEDTAVYYCAAGLPYGYGYDYWGQGTQVTVSS” the “polyreactivity (PSR sort gate)” value was “low polyreactivity”.
With “QVQLVESGGGLVQAGGSLRLSCAASGGIFTYYVLGWYRQAPGKERELVAAITIGDSTYYADSVKGRFTISRDNAKNTVYVQINSLKPEDTAVYYCNADPYNTWGFTNGYWGQGTQVTVSS” the “polyreactivity (PSR sort gate)” value was “low polyreactivity”.
With “QVQLVESGGGLVQAGGSLRLSCAASGGIFVTYAMVWYRQAPGKERELVAAITSGGTTYYADSVKGRFTISRDNAKNTVYIQMNSLTPEDTAVYYCAARYYPGYYYPPLDYWGQGSQVTVSS” the “polyreactivity (PSR sort gate)” value was “low polyreactivity”.
With “QVQLVESGGGLVQAGGSLRLSCAASGGIFWRYAMGWYRQAPGKERELVAAISSRGGSTYYADSVKGRFTISRDNAKNTVYLPMNSLKPEYTAVYYCAAAFLSRVQGYDSWGQGTQVTVSS” the “polyreactivity (PSR sort gate)” value was “high polyreactivity”.
With “QVQLVESGGGLVQAGGSLRLSCAASGGIFWVNAMGWYRQAPGKERELVAAISWSDDNTYYADSVKGRFTISRDNAKNTVYLQMNSLKPEDTAVYYCAKDFYDYGSFYWYEYWGQGTQVTVSS” the “polyreactivity (PSR sort gate)” value was “high polyreactivity”.
With “QVQLVESGGGLVQAGGSLRLSCAASGGIFYGYAMGWYRQAPGKERELVAAISDSGGSTYYADSVKGRFTNSRDNAKYTGYVQMNSLKPEVTAVYYCATDAPVGGYVSEGDYWGQGTQVTVSS” the “polyreactivity (PSR sort gate)” value was “low polyreactivity”.
For “QVQLVESGGGLVQAGGSLRLSCAASGGIFYPNVKGWYRQAPGKEREFVAAISSSSGSTYADSVKGRFTISRDNAKNTVYLQMNSLKPDDTAVFYCAAEENWWGIWVRYDYWVQGTQVTVSS”, the “polyreactivity (PSR sort gate)” value was “low polyreactivity”.
In the case of “QVQLVESGGGLVQAGGSLRLSCAASGGIFYPYAMGWYRQAPGKERELVASIDVSDGSTYYADSVKGRFTISRDNAKNTVYLQMNSLKPEDTAVYYCAADRYSKAIDFEGDYWGQGTQVTVSS”, the “polyreactivity (PSR sort gate)” value is reported as “low polyreactivity”.
In the case of “QVQLVESGGGLVQAGGSLRLSCAASGGIFYRYAMGWYRQAPGKEREFVASIDVSGGSTHYADSVKGRFTISRDNAKNTVDLQMNSLKPEDTAVHYCAARVYWRSSRYYYWGHGTQVTVSS”, the “polyreactivity (PSR sort gate)” value is reported as “high polyreactivity”.
In the case of “QVQLVESGGGLVQAGGSLRLSCAASGGIFYSYAMGWYRQAPGKERELVAAISGRGGSTYYADSVKGRFTISRDNAKNTVYLQMNSLKPEDTAVYYCNALGSQRYDYWGQGTQVTVSS”, the “polyreactivity (PSR sort gate)” value is reported as “high polyreactivity”.
In the case of “QVQLVESGGGLVQAGGSLRLSCAASGGIFYYNAMGWYRQAPGKERELLAAITFSGGGTYYADSVKGRFTISRDNAKNTVYFQMNSLKPEDTAVNYCAAKFYRYAWFLGYDYWGQGTQVTVSS”, the “polyreactivity (PSR sort gate)” value is reported as “high polyreactivity”.
In the case of “QVQLVESGGGLVQAGGSLRLSCAASGGIFYYYTMGWYRQAPGKERELVAVISSSGSTYYADSVKGRFTISRDNAKNTVYLQMNSLKPEDTAVYYCNALGWYGDYDYWGQGTQVTVSS”, the “polyreactivity (PSR sort gate)” value is reported as “low polyreactivity”.
With “QVQLVESGGGLVQAGGSLRLSCAASGGIISMYDIGWYRQAQGKERQLVAAISQSGGSTYYADYVKGRFTISRDNAKNTVYLQMNSLNPEVTGVYYCAADLYLTLIGFIFTGEEYWGQGTQGTVSS” the “polyreactivity (PSR sort gate)” value was “low polyreactivity”.
